Data as given in patent US20260258113A1, “BETA GLOBIN MIMETIC PEPTIDES AND THEIR USE” (THE UNITED STATES OF AMERICA, AS REPRESENTED BY THE …, priority 2022, published 2026).

Target: endothelial nitric oxide synthase (eNOS), endogenous, in human resistance arteries (human) (UniProt P29474)
Experiment: cell-based or functional assay

endothelial nitric oxide synthase (eNOS), endogenous, in human resistance arteries (human), sequence (P29474 2-1203 limits assumed): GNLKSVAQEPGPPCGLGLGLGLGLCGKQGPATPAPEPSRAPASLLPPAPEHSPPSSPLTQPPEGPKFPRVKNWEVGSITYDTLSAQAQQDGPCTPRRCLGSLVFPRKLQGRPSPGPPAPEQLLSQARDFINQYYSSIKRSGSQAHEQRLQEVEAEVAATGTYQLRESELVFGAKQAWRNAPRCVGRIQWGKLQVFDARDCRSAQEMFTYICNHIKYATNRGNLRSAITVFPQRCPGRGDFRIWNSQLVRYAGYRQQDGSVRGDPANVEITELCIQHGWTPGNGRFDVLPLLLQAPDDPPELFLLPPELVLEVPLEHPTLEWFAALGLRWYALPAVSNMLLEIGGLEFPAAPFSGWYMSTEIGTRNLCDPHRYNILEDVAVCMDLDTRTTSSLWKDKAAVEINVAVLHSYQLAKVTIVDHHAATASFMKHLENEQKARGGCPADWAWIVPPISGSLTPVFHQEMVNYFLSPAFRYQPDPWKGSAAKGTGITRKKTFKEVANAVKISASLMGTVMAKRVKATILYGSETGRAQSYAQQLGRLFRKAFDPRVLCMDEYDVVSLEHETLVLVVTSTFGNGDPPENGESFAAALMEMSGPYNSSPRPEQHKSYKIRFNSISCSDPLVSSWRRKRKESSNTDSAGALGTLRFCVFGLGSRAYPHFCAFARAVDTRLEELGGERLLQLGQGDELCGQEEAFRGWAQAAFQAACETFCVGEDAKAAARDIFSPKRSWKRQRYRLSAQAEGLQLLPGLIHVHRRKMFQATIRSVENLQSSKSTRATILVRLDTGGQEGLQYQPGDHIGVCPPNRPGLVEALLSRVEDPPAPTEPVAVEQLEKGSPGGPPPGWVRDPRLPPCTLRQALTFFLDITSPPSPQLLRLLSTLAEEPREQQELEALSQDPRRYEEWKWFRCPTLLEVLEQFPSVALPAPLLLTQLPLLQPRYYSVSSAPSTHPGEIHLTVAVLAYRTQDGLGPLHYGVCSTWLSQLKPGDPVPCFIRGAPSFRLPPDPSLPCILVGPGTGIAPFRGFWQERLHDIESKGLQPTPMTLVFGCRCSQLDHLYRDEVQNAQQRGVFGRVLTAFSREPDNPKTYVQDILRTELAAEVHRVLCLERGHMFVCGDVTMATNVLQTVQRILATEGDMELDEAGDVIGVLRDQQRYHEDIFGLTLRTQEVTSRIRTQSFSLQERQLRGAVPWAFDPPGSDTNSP

“alpha globin mimetic peptide HbαX with N-terminal HIV-tat tag” showed a Bottom (4-PL minimum of phenylephrine-induced constriction, % of baseline diameter), PE + Mimetic + LNAME, human omental arteries, pressure myography (% of baseline diameter) of 41.9 and a Bottom (4-PL minimum of phenylephrine-induced constriction, % of baseline diameter), PE + Mimetic, human omental arteries, pressure myography, peptide 5 µmol/L (% of baseline diameter) of 64.6.
